Measured values taken from IntAct's records for PubMed 25910212.

B1: Polyunsaturated fatty acid 5-lipoxygenase (Homo sapiens), P09917 (parent)
chain: MPSYTVTVATGSQWFAGTDDYIYLSLVGSAGCSEKHLLDKPFYNDFERGAVDSYDVTVDEELGEIQLVRIEKRKYWLNDDWYLKYITLKTPHGDYIEFPCYRWITGDVEVVLRDGRAKLARDDQIHILKQHRRKELETRQKQYRWMEWNPGFPLSIDAKCHKDLPRDIQFDSEKGVDFVLNYSKAMENLFINRFMHMFQSSWNDFADFEKIFVKISNTISERVMNHWQEDLMFGYQFLNGCNPVLIRRCTELPEKLPVTTEMVECSLERQLSLEQEVQQGNIFIVDFELLDGIDANKTDPCTLQFLAAPICLLYKNLANKIVPIAIQLNQIPGDENPIFLPSDAKYDWLLAKIWVRSSDFHVHQTITHLLRTHLVSEVFGIAMYRQLPAVHPIFKLLVAHVRFTIAINTKAREQLICECGLFDKANATGGGGHVQMVQRAMKDLTYASLCFPEAIKARGMESKEDIPYYFYRDDGLLVWEAIRTFTAEVVDIYYEGDQVVEEDPELQDFVNDVYVYGMRGRKSSGFPKSVKSREQLSEYLTVVIFTASAQHAAVNFGQYDWCSWIPNAPPTMRAPPPTAKGVVTIEQIVDTLPDRGRSCWHLGAVWALSQFQENELFLGMYPEEHFIEKPVKEAMARFRKNLEAIVSVIAERNKKKQLPYYYLSPDRIPNSVAI
B2: U4/U6 small nuclear ribonucleoprotein Prp31 (Homo sapiens), Q8WWY3 (parent)
chain: MSLADELLADLEEAAEEEEGGSYGEEEEEPAIEDVQEETQLDLSGDSVKTIAKLWDSKMFAEIMMKIEEYISKQAKASEVMGPVEAAPEYRVIVDANNLTVEIENELNIIHKFIRDKYSKRFPELESLVPNALDYIRTVKELGNSLDKCKNNENLQQILTNATIMVVSVTASTTQGQQLSEEELERLEEACDMALELNASKHRIYEYVESRMSFIAPNLSIIIGASTAAKIMGVAGGLTNLSKMPACNIMLLGAQRKTLSGFSSTSVLPHTGYIYHSDIVQSLPPDLRRKAARLVAAKCTLAARVDSFHESTEGKVGYELKDEIERKFDKWQEPPPVKQVKPLPAPLDGQRKKRGGRRYRKMKERLGLTEIRKQANRMSFGEIEEDAYQEDLGFSLGHLGKSGSGRVRQTQVNEATKARISKTLQRTLQKQSVVYGGKSTIRDRSSGTASSVAFTPLQGLEIVNPQAAEKKVAEANQKYFSSMAEFLKVKGEKSGLMST
partner: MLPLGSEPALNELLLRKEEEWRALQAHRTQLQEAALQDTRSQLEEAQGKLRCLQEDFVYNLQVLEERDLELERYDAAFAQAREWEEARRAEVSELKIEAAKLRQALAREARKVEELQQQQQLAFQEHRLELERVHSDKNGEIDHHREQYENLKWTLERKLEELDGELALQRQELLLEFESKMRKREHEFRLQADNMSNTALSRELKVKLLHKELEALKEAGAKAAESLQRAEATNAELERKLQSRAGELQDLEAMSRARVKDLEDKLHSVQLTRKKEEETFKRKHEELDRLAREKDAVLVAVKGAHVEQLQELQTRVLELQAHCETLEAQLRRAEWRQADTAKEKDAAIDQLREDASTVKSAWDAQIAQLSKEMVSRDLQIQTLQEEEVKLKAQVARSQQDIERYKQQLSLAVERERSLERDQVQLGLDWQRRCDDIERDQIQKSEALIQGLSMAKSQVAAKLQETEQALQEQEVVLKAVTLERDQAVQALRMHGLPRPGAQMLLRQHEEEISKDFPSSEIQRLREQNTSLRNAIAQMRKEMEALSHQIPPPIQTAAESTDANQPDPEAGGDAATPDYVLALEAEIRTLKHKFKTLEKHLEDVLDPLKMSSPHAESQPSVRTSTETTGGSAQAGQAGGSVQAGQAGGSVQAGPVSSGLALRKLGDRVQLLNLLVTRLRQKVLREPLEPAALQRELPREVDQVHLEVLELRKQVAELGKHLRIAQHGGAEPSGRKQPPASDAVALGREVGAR
B3: B-cell lymphoma/leukemia 10 (Homo sapiens), O95999 (parent)
chain: MEPTAPSLTEEDLTEVKKDALENLRVYLCEKIIAERHFDHLRAKKILSREDTEEISCRTSSRKRAGKLLDYLQENPKGLDTLVESIRREKTQNFLIQKITDEVLKLRNIKLEHLKGLKCSSCEPFPDGATNNLSRSNSDESNFSEKLRASTVMYHPEGESSTTPFFSTNSSLNLPVLEVGRTENTIFSSTTLPRPGDPGAPPLPPDLQLEEEGTCANSSEMFLPLRSRTVSRQ
partner: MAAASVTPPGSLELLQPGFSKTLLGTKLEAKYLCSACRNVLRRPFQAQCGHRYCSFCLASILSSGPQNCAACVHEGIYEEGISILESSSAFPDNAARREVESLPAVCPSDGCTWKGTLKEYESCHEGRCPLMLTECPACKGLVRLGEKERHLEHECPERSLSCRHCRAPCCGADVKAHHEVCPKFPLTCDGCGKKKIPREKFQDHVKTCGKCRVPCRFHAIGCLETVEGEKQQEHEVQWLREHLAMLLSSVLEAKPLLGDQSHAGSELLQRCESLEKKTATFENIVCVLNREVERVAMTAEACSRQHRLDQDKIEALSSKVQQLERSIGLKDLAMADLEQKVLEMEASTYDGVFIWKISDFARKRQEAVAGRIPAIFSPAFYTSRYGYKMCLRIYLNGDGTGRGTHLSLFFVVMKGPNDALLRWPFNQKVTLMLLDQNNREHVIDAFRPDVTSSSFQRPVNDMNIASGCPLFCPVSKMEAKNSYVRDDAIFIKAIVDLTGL
B4: SWI/SNF-related matrix-associated actin-dependent regulator of chromatin subfamily A member 2 (Homo sapiens), P51531-1 (parent)
chain: MSTPTDPGAMPHPGPSPGPGPSPGPILGPSPGPGPSPGSVHSMMGPSPGPPSVSHPMPTMGSTDFPQEGMHQMHKPIDGIHDKGIVEDIHCGSMKGTGMRPPHPGMGPPQSPMDQHSQGYMSPHPSPLGAPEHVSSPMSGGGPTPPQMPPSQPGALIPGDPQAMSQPNRGPSPFSPVQLHQLRAQILAYKMLARGQPLPETLQLAVQGKRTLPGLQQQQQQQQQQQQQQQQQQQQQQQPQQQPPQPQTQQQQQPALVNYNRPSGPGPELSGPSTPQKLPVPAPGGRPSPAPPAAAQPPAAAVPGPSVPQPAPGQPSPVLQLQQKQSRISPIQKPQGLDPVEILQEREYRLQARIAHRIQELENLPGSLPPDLRTKATVELKALRLLNFQRQLRQEVVACMRRDTTLETALNSKAYKRSKRQTLREARMTEKLEKQQKIEQERKRRQKHQEYLNSILQHAKDFKEYHRSVAGKIQKLSKAVATWHANTEREQKKETERIEKERMRRLMAEDEEGYRKLIDQKKDRRLAYLLQQTDEYVANLTNLVWEHKQAQAAKEKKKRRRRKKKAEENAEGGESALGPDGEPIDESSQMSDLPVKVTHTETGKVLFGPEAPKASQLDAWLEMNPGYEVAPRSDSEESDSDYEEEDEEEESSRQETEEKILLDPNSEEVSEKDAKQIIETAKQDVDDEYSMQYSARGSQSYYTVAHAISERVEKQSALLINGTLKHYQLQGLEWMVSLYNNNLNGILADEMGLGKTIQTIALITYLMEHKRLNGPYLIIVPLSTLSNWTYEFDKWAPSVVKISYKGTPAMRRSLVPQLRSGKFNVLLTTYEYIIKDKHILAKIRWKYMIVDEGHRMKNHHCKLTQVLNTHYVAPRRILLTGTPLQNKLPELWALLNFLLPTIFKSCSTFEQWFNAPFAMTGERVDLNEEETILIIRRLHKVLRPFLLRRLKKEVESQLPEKVEYVIKCDMSALQKILYRHMQAKGILLTDGSEKDKKGKGGAKTLMNTIMQLRKICNHPYMFQHIEESFAEHLGYSNGVINGAELYRASGKFELLDRILPKLRATNHRVLLFCQMTSLMTIMEDYFAFRNFLYLRLDGTTKSEDRAALLKKFNEPGSQYFIFLLSTRAGGLGLNLQAADTVVIFDSDWNPHQDLQAQDRAHRIGQQNEVRVLRLCTVNSVEEKILAAAKYKLNVDQKVIQAGMFDQKSSSHERRAFLQAILEHEEENEEEDEVPDDETLNQMIARREEEFDLFMRMDMDRRREDARNPKRKPRLMEEDELPSWIIKDDAEVERLTCEEEEEKIFGRGSRQRRDVDYSDALTEKQWLRAIEDGNLEEMEEEVRLKKRKRRRNVDKDPAKEDVEKAKKRRGRPPAEKLSPNPPKLTKQMNAIIDTVINYKDRCNVEKVPSNSQLEIEGNSSGRQLSEVFIQLPSRKELPEYYELIRKPVDFKKIKERIRNHKYRSLGDLEKDVMLLCHNAQTFNLEGSQIYEDSIVLQSVFKSARQKIAKEEESEDESNEEEEEEDEEESESEAKSVKVKIKLNKKDDKGRDKGKGKKRPNRGKAKPVVSDFDSDEEQDEREQSEGSGTDDE
partner: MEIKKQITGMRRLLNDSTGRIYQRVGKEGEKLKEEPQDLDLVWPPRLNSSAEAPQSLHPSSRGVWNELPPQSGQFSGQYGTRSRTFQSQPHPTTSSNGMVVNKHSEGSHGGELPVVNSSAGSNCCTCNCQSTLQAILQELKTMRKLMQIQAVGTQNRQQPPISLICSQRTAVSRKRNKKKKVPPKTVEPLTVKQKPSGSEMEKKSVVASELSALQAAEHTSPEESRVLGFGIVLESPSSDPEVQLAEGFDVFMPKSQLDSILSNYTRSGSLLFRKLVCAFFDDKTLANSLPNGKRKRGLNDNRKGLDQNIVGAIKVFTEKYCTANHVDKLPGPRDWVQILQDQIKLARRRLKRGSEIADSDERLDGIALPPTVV
B5: Emerin (Homo sapiens), P50402 (parent)
chain: MDNYADLSDTELTTLLRRYNIPHGPVVGSTRRLYEKKIFEYETQRRRLSPPSSSAASSYSFSDLNSTRGDADMYDLPKKEDALLYQSKGYNDDYYEESYFTTRTYGEPESAGPSRAVRQSVTSFPDADAFHHQVHDDDLLSSSEEECKDRERPMYGRDSAYQSITHYRPVSASRSSLDLSYYPTSSSTSFMSSSSSSSSWLTRRAIRPENRAPGAGLGQDRQVPLWGQLLLFLVFVIVLFFIYHFMQAEEGNPF
partner: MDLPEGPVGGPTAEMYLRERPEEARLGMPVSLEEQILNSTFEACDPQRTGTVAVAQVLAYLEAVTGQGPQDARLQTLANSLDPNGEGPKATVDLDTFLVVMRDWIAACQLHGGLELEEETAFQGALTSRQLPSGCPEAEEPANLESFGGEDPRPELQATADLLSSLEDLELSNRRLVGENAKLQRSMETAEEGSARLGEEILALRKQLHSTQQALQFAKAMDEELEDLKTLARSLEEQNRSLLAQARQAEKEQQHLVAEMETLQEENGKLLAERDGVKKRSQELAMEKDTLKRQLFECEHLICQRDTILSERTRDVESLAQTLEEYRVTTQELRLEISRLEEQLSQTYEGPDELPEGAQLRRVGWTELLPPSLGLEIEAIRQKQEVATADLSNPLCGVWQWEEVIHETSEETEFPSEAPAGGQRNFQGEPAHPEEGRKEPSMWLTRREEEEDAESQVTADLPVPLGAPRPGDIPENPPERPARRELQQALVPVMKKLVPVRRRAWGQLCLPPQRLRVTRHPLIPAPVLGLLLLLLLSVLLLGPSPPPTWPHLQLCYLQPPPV

Variants of: B1
Conditions: with md1l1_human MAD1L1, Q9Y6D9
md1l1_human MAD1L1, Q9Y6D9, sequence (Q9Y6D9 whole entry): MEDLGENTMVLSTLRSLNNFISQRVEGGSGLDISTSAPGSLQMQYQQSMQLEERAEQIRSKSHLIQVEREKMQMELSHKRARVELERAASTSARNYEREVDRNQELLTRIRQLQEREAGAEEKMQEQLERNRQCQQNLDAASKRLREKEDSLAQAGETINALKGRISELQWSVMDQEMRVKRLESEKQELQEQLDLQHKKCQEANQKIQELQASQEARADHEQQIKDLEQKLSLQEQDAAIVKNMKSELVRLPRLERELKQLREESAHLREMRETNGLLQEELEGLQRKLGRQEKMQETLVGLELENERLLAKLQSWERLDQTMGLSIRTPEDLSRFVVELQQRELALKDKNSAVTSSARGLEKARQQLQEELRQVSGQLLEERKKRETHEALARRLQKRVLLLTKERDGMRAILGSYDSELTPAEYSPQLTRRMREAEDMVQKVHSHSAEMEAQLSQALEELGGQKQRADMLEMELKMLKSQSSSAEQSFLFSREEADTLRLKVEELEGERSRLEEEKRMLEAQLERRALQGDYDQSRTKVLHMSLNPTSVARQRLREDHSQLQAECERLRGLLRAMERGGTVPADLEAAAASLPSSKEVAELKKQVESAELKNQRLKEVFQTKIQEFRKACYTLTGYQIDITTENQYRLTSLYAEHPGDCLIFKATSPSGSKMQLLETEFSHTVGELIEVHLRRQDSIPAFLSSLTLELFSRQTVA

Row | effect of a mutation on the interaction | Variant
1 | with no effect | E254K

Variants of: B1
Conditions: with hipl2_human HHIPL2, Q6UWX4
hipl2_human HHIPL2, Q6UWX4, sequence (Q6UWX4 whole entry): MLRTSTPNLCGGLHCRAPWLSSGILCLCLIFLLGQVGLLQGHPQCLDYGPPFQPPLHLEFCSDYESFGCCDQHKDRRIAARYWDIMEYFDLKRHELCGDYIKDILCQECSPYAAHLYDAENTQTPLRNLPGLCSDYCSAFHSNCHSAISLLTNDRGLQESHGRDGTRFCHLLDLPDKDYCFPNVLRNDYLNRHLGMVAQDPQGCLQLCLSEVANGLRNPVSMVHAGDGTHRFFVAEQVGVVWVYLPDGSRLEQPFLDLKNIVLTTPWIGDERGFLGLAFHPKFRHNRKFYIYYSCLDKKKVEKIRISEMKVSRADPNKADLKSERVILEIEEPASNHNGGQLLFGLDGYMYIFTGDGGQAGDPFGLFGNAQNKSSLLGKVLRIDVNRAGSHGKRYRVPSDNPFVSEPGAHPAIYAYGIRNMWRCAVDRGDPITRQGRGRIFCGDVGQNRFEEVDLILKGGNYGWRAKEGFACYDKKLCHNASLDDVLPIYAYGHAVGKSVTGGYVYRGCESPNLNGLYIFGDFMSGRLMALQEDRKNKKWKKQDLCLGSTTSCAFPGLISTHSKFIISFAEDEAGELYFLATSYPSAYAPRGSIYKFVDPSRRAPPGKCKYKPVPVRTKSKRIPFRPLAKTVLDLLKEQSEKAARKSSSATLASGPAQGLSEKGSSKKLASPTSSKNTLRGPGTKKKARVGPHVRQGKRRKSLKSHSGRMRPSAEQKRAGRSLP

Row | effect of a mutation on the interaction | Variant
2 | with no effect | E254K

Variants of: B1
Conditions: with syce1_human SYCE1, Q8N0S2
syce1_human SYCE1, Q8N0S2, sequence (Q8N0S2 whole entry): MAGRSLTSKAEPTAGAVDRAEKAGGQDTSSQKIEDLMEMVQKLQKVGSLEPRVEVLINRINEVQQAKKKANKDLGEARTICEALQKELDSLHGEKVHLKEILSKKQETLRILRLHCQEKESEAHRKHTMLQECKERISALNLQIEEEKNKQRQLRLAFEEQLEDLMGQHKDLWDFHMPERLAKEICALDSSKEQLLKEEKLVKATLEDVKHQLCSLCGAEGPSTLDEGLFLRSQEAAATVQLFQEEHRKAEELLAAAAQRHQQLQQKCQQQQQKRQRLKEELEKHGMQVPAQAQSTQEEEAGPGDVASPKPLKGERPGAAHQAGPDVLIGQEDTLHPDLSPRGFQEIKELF

Row | effect of a mutation on the interaction | Variant
3 | with no effect | E254K

Variants of: B2
Conditions: with CCDC57, Q2TAC2-2

Row | effect of a mutation on the interaction | Variant
4 | with no effect | L107V

Variants of: B3
Conditions: with traf2_human TRAF2, Q12933

Row | effect of a mutation on the interaction | Variant
5 | with no effect | A5S

Variants of: B4
Conditions: with BEND7, Q8N7W2-2

Row | effect of a mutation on the interaction | Variant
6 | with no effect | D1546E

Variants of: B4
Conditions: with BEND7, Q8N7W2-2
Remark: another data set of the same source

Row | effect of a mutation on the interaction | Variant
7 | with no effect | D1546E

Variants of: B5
Conditions: with kash5_human KASH5, Q8N6L0

Row | effect of a mutation on the interaction | Variant
8 | with no effect | S54F
9 | with no effect | D72V
10 | with no effect | P183H
